Measurements published in patent US20220235139A1 (ROCHE DIAGNOSTICS OPERATIONS, published 2022).

Legend:
[1] = molecular target: T1, human CSF-1R (Colony stimulating factor 1 receptor) (human, UniProt P07333 20-972, limits assumed); assay: Western blot of cell lysates: lane 2 NIH3T3 wt, lane 3 NIH 3T3+CSF1 K4, lane 4 NIH 3T3+CSF1 K8 [continued]
T1 construct: also called M-CSF receptor; c-fms

TtSlyD-CSF1R = molecular target: T2, TtSlyD-CSF1R; assay: SPR (Biacore), captured antibody, single injection of 300 nM analyte
T2 construct: also called 21 kDa TtSlyD-CSF1R protein
T2 chain: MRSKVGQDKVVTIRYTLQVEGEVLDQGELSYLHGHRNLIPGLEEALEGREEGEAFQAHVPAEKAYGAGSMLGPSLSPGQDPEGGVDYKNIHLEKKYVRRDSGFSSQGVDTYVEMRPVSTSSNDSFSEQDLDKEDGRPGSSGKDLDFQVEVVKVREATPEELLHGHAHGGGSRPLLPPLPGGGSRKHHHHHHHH
Experimental: A Biacore B3000 instrument (GE Healthcare) was used to kinetically assess the rabbit antibodies for kinetics and binding specificity for TtSlyD-CSF1R. A CMS series sensor was mounted into the system and was normalized in HBS-ET buffer (10 mM HEPES pH 7.4, 150 mM NaCl, 3 mM EDTA, 0.005% w/v Tween 20) according to the manufacturer's instructions. The sample buffer was the system buffer supplemented with 1 mg/ml CMD (Carboxymethyldextran, Sigma #86524). The system operated at 25° C. 10000 RU GAR<F(ab)2> (relative units of goat anti rabbit F(ab)2/Jackson Laboratories, cat. No. 100018) were immobilized according to the manufacturer's instructions using EDC/NHS chemistry on all flow cells. The sensor was saturated with 1M ethanolamine. The binding activity of the antibodies against the analytes were kinetically tested. […] Antibodies were captured by a 2 min injection at 10 μl/min of cell culture HEK supernatant diluted 1:2 in sample buffer. The flow rate was set to 100 μl/min. The analyte was injected at different concentration steps of 0 nM, 1.1 nM, 3.7 nM, 11.1 nM, […], 100 nM and 300 nM for 2 min. The dissociation was monitored for 5 min. Kinetic signatures were monitored and evaluated using the Biaevaluation Software and a binary Langmuir Fitting model with RMAX local. […]

[2] = molecular target: T3, phosphorylated TtSlyD-CSF1R; assay: SPR (Biacore), antibody captured on anti-rabbit F(ab)2, analyte in solution, Langmuir fit, 25 C
T3 sequence (chain, tyrosines phosphorylated in vitro with Src (1-530) kinase; positions not stated): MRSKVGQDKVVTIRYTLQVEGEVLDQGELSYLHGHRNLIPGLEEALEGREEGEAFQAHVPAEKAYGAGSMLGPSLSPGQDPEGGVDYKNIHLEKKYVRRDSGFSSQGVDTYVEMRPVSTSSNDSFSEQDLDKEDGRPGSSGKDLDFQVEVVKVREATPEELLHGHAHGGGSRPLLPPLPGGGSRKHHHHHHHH

[3] = molecular target: T4, SEQ ID NO 19: pY-K-N-I-H-L-E-K-K-pY-V-R-R-D-S; assay: CelluSpots peptide array, 15-mer CSF-1R peptides in duplicate
T4 sequence (peptide, phosphotyrosine (pY) at positions 1 and 10): YKNIHLEKKYVRRDS

[4] = molecular target: T5, SEQ ID NO 15: G-G-V-D-pY-K-N-I-H-L-E-K-K-pY-V; assay: as above
T5 sequence (peptide, phosphotyrosine (pY) at positions 5 and 14): GGVDYKNIHLEKKYV

[5] = molecular target: T6, SEQ ID NO 17: V-D-pY-K-N-I-H-L-E-K-K-pY-V-R-R; assay: as above
T6 sequence (peptide, phosphotyrosine (pY) at positions 3 and 12): VDYKNIHLEKKYVRR

[6] = molecular target: T7, SEQ ID NO 20: K-N-I-H-L-E-K-K-pY-V-R-R-D-S-G; assay: as above
T7 sequence (peptide, phosphotyrosine (pY) at position 9): KNIHLEKKYVRRDSG

[7] = molecular target: T8, SEQ ID NO 18: D-pY-K-N-I-H-L-E-K-K-pY-V-R-R-D; assay: as above
T8 sequence (peptide, phosphotyrosine (pY) at positions 2 and 11): DYKNIHLEKKYVRRD

[8] = molecular target: T9, SEQ ID NO: 14: E-G-G-V-D-pY-K-N-I-H-L-E-K-K-pY; assay: as above
T9 sequence (peptide, phosphotyrosine (pY) at positions 6 and 15): EGGVDYKNIHLEKKY

[9] = molecular target: T10, SEQ ID NO: 13: P-E-G-G-V-D-pY-K-N-I-H-L-E-K-K; assay: as above
T10 sequence (peptide, phosphotyrosine (pY) at position 7): PEGGVDYKNIHLEKK

[10] = molecular target: T11, SEQ ID NO 21: N-I-H-L-E-K-K-pY-V-R-R-D-S-G-F; assay: as above
T11 sequence (peptide, phosphotyrosine (pY) at position 8): NIHLEKKYVRRDSGF

[11] = molecular target: T12, SEQ ID NO 16: G-V-D-pY-K-N-I-H-L-E-K-K-pY-V-R; assay: as above
T12 sequence (peptide, phosphotyrosine (pY) at positions 4 and 13): GVDYKNIHLEKKYVR

T1 sequence (P07333 other isoform, or with tags, fused parts or gaps limits assumed): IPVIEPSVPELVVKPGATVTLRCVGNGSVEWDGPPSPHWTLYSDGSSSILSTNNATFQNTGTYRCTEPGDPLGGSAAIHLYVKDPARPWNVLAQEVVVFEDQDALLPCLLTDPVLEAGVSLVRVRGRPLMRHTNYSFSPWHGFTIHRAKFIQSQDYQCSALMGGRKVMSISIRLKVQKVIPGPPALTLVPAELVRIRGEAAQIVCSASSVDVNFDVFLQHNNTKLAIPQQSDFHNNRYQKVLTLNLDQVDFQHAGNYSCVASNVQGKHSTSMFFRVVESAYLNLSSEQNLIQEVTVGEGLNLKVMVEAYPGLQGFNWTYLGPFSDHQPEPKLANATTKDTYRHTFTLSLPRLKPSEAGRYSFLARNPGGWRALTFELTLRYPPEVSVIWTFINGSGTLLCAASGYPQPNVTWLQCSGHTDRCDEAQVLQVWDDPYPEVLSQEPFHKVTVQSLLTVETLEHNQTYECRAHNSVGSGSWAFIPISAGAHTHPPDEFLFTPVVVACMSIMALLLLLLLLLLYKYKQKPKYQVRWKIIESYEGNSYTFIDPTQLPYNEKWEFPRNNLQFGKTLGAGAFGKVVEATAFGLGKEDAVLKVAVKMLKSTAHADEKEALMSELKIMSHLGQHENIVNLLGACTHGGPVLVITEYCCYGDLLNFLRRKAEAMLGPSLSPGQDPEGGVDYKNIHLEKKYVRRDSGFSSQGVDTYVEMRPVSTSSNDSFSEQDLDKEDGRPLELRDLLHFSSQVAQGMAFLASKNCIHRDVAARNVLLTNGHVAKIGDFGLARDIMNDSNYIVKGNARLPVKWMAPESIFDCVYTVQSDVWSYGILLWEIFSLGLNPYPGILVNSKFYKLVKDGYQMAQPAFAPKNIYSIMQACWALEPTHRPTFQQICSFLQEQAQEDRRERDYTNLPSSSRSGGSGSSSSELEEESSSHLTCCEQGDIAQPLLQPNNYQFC

B1: antibody 1H11 (antibody, V domains shown)
VH: QSVEESGGRLVTPGTPLTLTCTASGFSLSRYWMTWVRQAPGKGLEYIGWIDRSGNTYFADWAKGRFTGSKTSTTRDLKITSPTTEDTATYFCGRGGQNNGYDLWGPGTLVTVSS
VL: AAVLTQTPSPVSAAVGGTVTISCQSSESVYSNNFLSWYQLKPGQRPRLLIYEASKVASGVPSRFSGSGSGTQFTLTISGVQCDDAATYYCAGGYDVSDDAFGGGTEVLVK
notes: Rabbit full length IgG made recombinantly in FreeStyle 293-F cells; For SPR it was captured from HEK culture supernatant on goat anti-rabbit F(ab)2; no sentence ties 1H11 to them directly; also called rabbit monoclonal anti-CSF-1R antibody
B1 was tested, and the binding result [1] was “binds”, the binding result (TtSlyD-CSF1R) was “binds” and the Kd [2] was 0.2 nM. The koff [2] was 0.000122 s⁻¹, the kon [2] was 578000 M⁻¹ s⁻¹ and the % Signal [3] was 62.6%. It also gave a % Signal [4] of 57.1%, a % Signal [5] of 91.8% and a % Signal [6] of 48.9%. For the same binder, the % Signal [7] was 49.8%, the % Signal [8] was 55.3% and the % Signal [9] was 100%. It also gave a % Signal [10] of 45.7% and a % Signal [11] of 73.9%.
